In paper PMC11574045, “A cofactor-induced repressive type of transcription factor condensation can be induced by synthetic peptides to suppress tumorigenesis” (The EMBO Journal, 2024):

System: HEK293FT cells transfected with TF library
Assay: Screening of TF condensates based on fluorescent puncta
Format: cell-based
Conditions: Figure 1B numerical data; TF library screen, one value per transcriptional factor
Summary of the method: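 HEK293FT cells were reverse-transfected with Flag- or GAL4-tagged TF plasmids (1.6 μg/ml, PEI). After 60 h, cells were cultured 12 h with or without glucose, then fixed and immunostained with anti-Flag or anti-GAL4 and Alexa 488 secondaries. Fluorescent puncta were imaged over fifty random fields per well by high-content imaging.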

Molecule | Z score of condensed fraction
ATF1 (protein, UniProt P18846 1-271, looked up) Cyclic AMP-dependent …: MEDSHKSTTSETAPQPGSAVQGAHISHIAQQVSSLSESEESQDSSDSIGSSQKAHGILARRPSYRKILKDLSSEDTRGRKGDGENSGVSAAVTSMSVPTPIYQTSSGQYIAIAPNGALQLASPGTDGVQGLQTLTMTNSGSTQQGTTILQYAQTSDGQQILVPSNQVVVQTASGDMQTYQIRTTPSATSLPQTVVMTSPVTLTSQTTKTDDPQLKREIRLMKNREAARECRRKKKEYVKCLENRVAVLENQNKTLIEELKTLKDLYSNKSV | -0.9514
MYNN (protein, UniProt Q9NPC7 1-610, looked up) Myoneurin: MQYSHHCEHLLERLNKQREAGFLCDCTIVIGEFQFKAHRNVLASFSEYFGAIYRSTSENNVFLDQSQVKADGFQKLLEFIYTGTLNLDSWNVKEIHQAADYLKVEEVVTKCKIKMEDFAFIANPSSTEISSITGNIELNQQTCLLTLRDYNNREKSEVSTDLIQANPKQGALAKKSSQTKKKKKAFNSPKTGQNKTVQYPSDILENASVELFLDANKLPTPVVEQVAQINDNSELELTSVVENTFPAQDIVHTVTVKRKRGKSQPNCALKEHSMSNIASVKSPYEAENSGEELDQRYSKAKPMCNTCGKVFSEASSLRRHMRIHKGVKPYVCHLCGKAFTQCNQLKTHVRTHTGEKPYKCELCDKGFAQKCQLVFHSRMHHGEEKPYKCDVCNLQFATSSNLKIHARKHSGEKPYVCDRCGQRFAQASTLTYHVRRHTGEKPYVCDTCGKAFAVSSSLITHSRKHTGEKPYICGICGKSFISSGELNKHFRSHTGERPFICELCGNSYTDIKNLKKHKTKVHSGADKTLDSSAEDHTLSEQDSIQKSPLSETMDVKPSDMTLPLALPLGTEDHHMLLPVTDTQSPTSDTLLRSTVNGYSEPQLIFLQQLY | -0.5885
MYSM1 (protein, UniProt Q5VVJ2 1-828, looked up) Deubiquitinase MYSM1: MAAEEADVDIEGDVVAAAGAQPGSGENTASVLQKDHYLDSSWRTENGLIPWTLDNTISEENRAVIEKMLLEEEYYLSKKSQPEKVWLDQKEDDKKYMKSLQKTAKIMVHSPTKPASYSVKWTIEEKELFEQGLAKFGRRWTKISKLIGSRTVLQVKSYARQYFKNKVKCGLDKETPNQKTGHNLQVKNEDKGTKAWTPSCLRGRADPNLNAVKIEKLSDDEEVDITDEVDELSSQTPQKNSSSDLLLDFPNSKMHETNQGEFITSDSQEALFSKSSRGCLQNEKQDETLSSSEITLWTEKQSNGDKKSIELNDQKFNELIKNCNKHDGRGIIVDARQLPSPEPCEIQKNLNDNEMLFHSCQMVEESHEEEELKPPEQEIEIDRNIIQEEEKQAIPEFFEGRQAKTPERYLKIRNYILDQWEICKPKYLNKTSVRPGLKNCGDVNCIGRIHTYLELIGAINFGCEQAVYNRPQTVDKVRIRDRKDAVEAYQLAQRLQSMRTRRRRVRDPWGNWCDAKDLEGQTFEHLSAEELAKRREEEKGRPVKSLKVPRPTKSSFDPFQLIPCNFFSEEKQEPFQVKVASEALLIMDLHAHVSMAEVIGLLGGRYSEVDKVVEVCAAEPCNSLSTGLQCEMDPVSQTQASETLAVRGFSVIGWYHSHPAFDPNPSLRDIDTQAKYQSYFSRGGAKFIGMIVSPYNRNNPLPYSQITCLVISEEISPDGSYRLPYKFEVQQMLEEPQWGLVFEKTRWIIEKYRLSHSSVPMDKIFRRDSDLTCLQKLLECMRKTLSKVTNCFMAEEFLTEIENLFLSNYKSNQENGVTEENCTKELLM | -0.7244
NEUROD (protein, UniProt Q13562 1-356, looked up) Neurogenic differentiation …: MTKSYSESGLMGEPQPQGPPSWTDECLSSQDEEHEADKKEDDLETMNAEEDSLRNGGEEEDEDEDLEEEEEEEEEDDDQKPKRRGPKKKKMTKARLERFKLRRMKANARERNRMHGLNAALDNLRKVVPCYSKTQKLSKIETLRLAKNYIWALSEILRSGKSPDLVSFVQTLCKGLSQPTTNLVAGCLQLNPRTFLPEQNQDMPPHLPTASASFPVHPYSYQSPGLPSPPYGTMDSSHVFHVKPPPHAYSAALEPFFESPLTDCTSPSFDGPLSPPLSINGNFSFKHEPSAEFEKNYAFTMHYPAATLAGAQSHGSIFSGTAAPRCEIPIDNIMSFDSHSHHERVMSAQLNAIFHD | 0.06185
NEUROD3 (protein, UniProt Q92886 1-237, looked up) Neurogenin-1: MPARLETCISDLDCASSSGSDLSGFLTDEEDCARLQQAASASGPPAPARRGAPNISRASEVPGAQDDEQERRRRRGRTRVRSEALLHSLRRSRRVKANDRERNRMHNLNAALDALRSVLPSFPDDTKLTKIETLRFAYNYIWALAETLRLADQGLPGGGARERLLPPQCVPCLPGPPSPASDAESWGSGAAAASPLSDPSSPAASEDFTYRPGDPVFSFPSLPKDLLHTTPCFIPYH | -0.2856
NEUROG3 (protein, UniProt Q9Y4Z2 1-214, looked up) Neurogenin-3: MTPQPSGAPTVQVTRETERSFPRASEDEVTCPTSAPPSPTRTRGNCAEAEEGGCRGAPRKLRARRGGRSRPKSELALSKQRRSRRKKANDRERNRMHNLNSALDALRGVLPTFPDDAKLTKIETLRFAHNYIWALTQTLRIADHSLYALEPPAPHCGELGSPGGSPGDWGSLYSPVSQAGSLSPAASLEERPGLLGATFSACLSPGSLAFSDFL | 1.376
MYOG (protein, UniProt P15173 1-224, looked up) Myogenin: MELYETSPYFYQEPRFYDGENYLPVHLQGFEPPGYERTELTLSPEAPGPLEDKGLGTPEHCPGQCLPWACKVCKRKSVSVDRRRAATLREKRRLKKVNEAFEALKRSTLLNPNQRLPKVEILRSAIQYIERLQALLSSLNQEERDLRYRGGGGPQPGVPSECSSHSASCSPEWGSALEFSANPGDHLLTADPTDAHNLHSLTSIVDSITVEDVSVAFPDETMPN | 0.6311
NEUROD4 (protein, UniProt Q9HD90 1-331, looked up) Neurogenic differentiation …: MSKTFVKSKEMGELVNTPSWMDKGLGSQNEVKEEESRPGTYGMLSSLTEEHDSIEEEEEEEEDGEKPKRRGPKKKKMTKARLERFRARRVKANARERTRMHGLNDALDNLRRVMPCYSKTQKLSKIETLRLARNYIWALSEVLETGQTPEGKGFVEMLCKGLSQPTSNLVAGCLQLGPQSVLLEKHEDKSPICDSAISVHNFNYQSPGLPSPPYGHMETHLLHLKPQVFKSLGESSFGSHLPDCSTPPYEGPLTPPLSISGNFSLKQDGSPDLEKSYSFMPHYPSSSLSSGHVHSTPFQAGTPRYDVPIDMSYDSYPHHGIGTQLNTVFTE | 0.614
NEUROG2 (protein, UniProt Q9H2A3 1-272, looked up) Neurogenin-2: MFVKSETLELKEEEDVLVLLGSASPALAALTPLSSSADEEEEEEPGASGGARRQRGAEAGQGARGGVAAGAEGCRPARLLGLVHDCKRRPSRARAVSRGAKTAETVQRIKKTRRLKANNRERNRMHNLNAALDALREVLPTFPEDAKLTKIETLRFAHNYIWALTETLRLADHCGGGGGGLPGALFSEAVLLSPGGASAALSSSGDSPSPASTWSCTNSPAPSSSVSSNSTSPYSCTLSPASPAGSDMDYWQPPPPDKHRYAPHLPIARDCI | -1.044
NFATC1 (protein, UniProt O95644 1-943, looked up) Nuclear factor of activated …: MPSTSFPVPSKFPLGPAAAVFGRGETLGPAPRAGGTMKSAEEEHYGYASSNVSPALPLPTAHSTLPAPCHNLQTSTPGIIPPADHPSGYGAALDGGPAGYFLSSGHTRPDGAPALESPRIEITSCLGLYHNNNQFFHDVEVEDVLPSSKRSPSTATLSLPSLEAYRDPSCLSPASSLSSRSCNSEASSYESNYSYPYASPQTSPWQSPCVSPKTTDPEEGFPRGLGACTLLGSPRHSPSTSPRASVTEESWLGARSSRPASPCNKRKYSLNGRQPPYSPHHSPTPSPHGSPRVSVTDDSWLGNTTQYTSSAIVAAINALTTDSSLDLGDGVPVKSRKTTLEQPPSVALKVEPVGEDLGSPPPPADFAPEDYSSFQHIRKGGFCDQYLAVPQHPYQWAKPKPLSPTSYMSPTLPALDWQLPSHSGPYELRIEVQPKSHHRAHYETEGSRGAVKASAGGHPIVQLHGYLENEPLMLQLFIGTADDRLLRPHAFYQVHRITGKTVSTTSHEAILSNTKVLEIPLLPENSMRAVIDCAGILKLRNSDIELRKGETDIGRKNTRVRLVFRVHVPQPSGRTLSLQVASNPIECSQRSAQELPLVEKQSTDSYPVVGGKKMVLSGHNFLQDSKVIFVEKAPDGHHVWEMEAKTDRDLCKPNSLVVEIPPFRNQRITSPVHVSFYVCNGKRKRSQYQRFTYLPANVPIIKTEPTDDYEPAPTCGPVSQGLSPLPRPYYSQQLAMPPDPSSCLVAGFPPCPQRSTLMPAAPGVSPKLHDLSPAAYTKGVASPGHCHLGLPQPAGEAPAVQDVPRPVATHPGSPGQPPPALLPQQVSAPPSSSCPPGLEHSLCPSSPSPPLPPATQEPTCLQPCSPACPPATGRPQHLPSTVRRDESPTAGPRLLPEVHEDGSPNLAPIPVTVKREPEELDQLYLDDVNEIIRNDLSSTSTHS | -0.245
MYCBP (protein, UniProt Q99417 2-103, looked up) c-Myc-binding protein: AHYKAADSKREQFRRYLEKSGVLDTLTKVLVALYEEPEKPNSALDFLKHHLGAATPENPEIELLRLELAEMKEKYEAIVEENKKLKAKLAQYEPPQEEKRAE | -0.1227
ATF2 (protein, UniProt P16951 1-487, looked up) Cyclic AMP-dependent …: MSDDKPFLCTAPGCGQRFTNEDHLAVHKHKHEMTLKFGPARNDSVIVADQTPTPTRFLKNCEEVGLFNELASPFENEFKKASEDDIKKMPLDLSPLATPIIRSKIEEPSVVETTHQDSPLPHPESTTSDEKEVPLAQTAQPTSAIVRPASLQVPNVLLTSSDSSVIIQQAVPSPTSSTVITQAPSSNRPIVPVPGPFPLLLHLPNGQTMPVAIPASITSSNVHVPAAVPLVRPVTMVPSVPGIPGPSSPQPVQSEAKMRLKAALTQQHPPVTNGDTVKGHGSGLVRTQSEESRPQSLQQPATSTTETPASPAHTTPQTQNTSGRRRRAANEDPDEKRRKFLERNRAAASRCRQKRKVWVQSLEKKAEDLSSLNGQLQSEVTLLRNEVAQLKQLLLAHKDCPVTAMQKKSGYHTADKDDSSEDLSVPSSPHTEAIQHSSVSTSNGVSSTSKAEAVATSVLTQMADQSTEPALSQIVMAPPSQAQPSGS | 2.014
